Reference: article PMC9482650, “Quantitative fragmentomics allow affinity mapping of interactomes” (Nature Communications, 2022)

T1: APBA2_1, Q99767
T1 sequence (Q99767 563-664, limits assumed, looked up): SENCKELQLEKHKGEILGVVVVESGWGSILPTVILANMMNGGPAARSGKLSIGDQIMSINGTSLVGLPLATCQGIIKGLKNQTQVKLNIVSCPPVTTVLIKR

T2: APBA3_1, O96018
T2 sequence (O96018 389-490, limits assumed, looked up): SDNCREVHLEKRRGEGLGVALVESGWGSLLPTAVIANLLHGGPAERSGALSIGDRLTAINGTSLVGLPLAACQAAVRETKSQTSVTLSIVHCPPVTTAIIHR

T3: ARHGAP21, Q5T5U3
T3 sequence (Q5T5U3 45-169, limits assumed, looked up): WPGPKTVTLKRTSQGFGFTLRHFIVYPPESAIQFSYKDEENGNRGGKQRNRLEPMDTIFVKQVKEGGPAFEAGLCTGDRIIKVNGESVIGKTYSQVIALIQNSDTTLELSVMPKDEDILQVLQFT

T4: DLG3_1, Q92796
T4 sequence (Q92796 125-227, limits assumed, looked up): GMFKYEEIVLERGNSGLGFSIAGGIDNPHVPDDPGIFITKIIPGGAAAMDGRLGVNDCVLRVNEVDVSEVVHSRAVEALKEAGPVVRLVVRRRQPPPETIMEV

T5: DLG3_2, Q92796
T5 sequence (Q92796 221-321, limits assumed, looked up): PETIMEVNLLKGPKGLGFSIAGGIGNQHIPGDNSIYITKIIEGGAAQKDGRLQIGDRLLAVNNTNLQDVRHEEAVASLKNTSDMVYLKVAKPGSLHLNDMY

T6: DVL3, Q92997
T6 sequence (Q92997 244-331, limits assumed, looked up): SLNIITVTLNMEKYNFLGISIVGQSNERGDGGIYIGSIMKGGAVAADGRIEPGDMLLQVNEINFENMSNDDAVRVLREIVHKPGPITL

T7: FRMPD1, Q5SYB0
T7 sequence (Q5SYB0 52-145, limits assumed, looked up): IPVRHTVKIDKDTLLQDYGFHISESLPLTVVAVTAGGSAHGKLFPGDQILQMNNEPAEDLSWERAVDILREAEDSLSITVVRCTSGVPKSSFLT

T8: GRIP1_5, Q9Y3R0
T8 sequence (Q9Y3R0 568-668, limits assumed, looked up): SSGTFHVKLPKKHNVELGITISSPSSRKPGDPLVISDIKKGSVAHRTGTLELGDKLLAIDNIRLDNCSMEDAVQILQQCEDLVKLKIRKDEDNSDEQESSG

T9: PDZD7_3, Q9H5P4
T9 sequence (Q9H5P4 857-944, limits assumed, looked up): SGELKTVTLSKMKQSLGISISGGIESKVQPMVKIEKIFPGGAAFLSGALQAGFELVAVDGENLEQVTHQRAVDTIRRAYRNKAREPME

T10: SHANK1, Q9Y566
T10 sequence (Q9Y566 658-767, limits assumed, looked up): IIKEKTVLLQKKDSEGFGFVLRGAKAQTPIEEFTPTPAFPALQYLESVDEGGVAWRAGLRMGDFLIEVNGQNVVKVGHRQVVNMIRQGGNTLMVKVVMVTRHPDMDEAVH

T11: SNTB1, Q13884
T11 sequence (Q13884 107-205, limits assumed, looked up): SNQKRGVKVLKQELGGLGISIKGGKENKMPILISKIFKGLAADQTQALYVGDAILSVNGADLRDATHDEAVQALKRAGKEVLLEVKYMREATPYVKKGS

T12: SYNJ2BP, P57105
T12 sequence (P57105 8-110, limits assumed, looked up): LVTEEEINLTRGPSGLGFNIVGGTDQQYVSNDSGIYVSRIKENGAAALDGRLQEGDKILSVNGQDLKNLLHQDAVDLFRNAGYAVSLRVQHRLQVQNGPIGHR

T13: TJP3_3, O95049
T13 sequence (O95049 375-456, limits assumed, looked up): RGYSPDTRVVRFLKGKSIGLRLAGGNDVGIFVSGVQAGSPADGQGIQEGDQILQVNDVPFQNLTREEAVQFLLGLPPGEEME


biological target: T1, APBA2_1, Q99767; test: holdup assay; set-up: key: below the threshold = too weak to quantify, mostly under pKd 3.1 to 4; settings: plain residues with an end cap or a label only (N-terminal biotin on a linker: ado-ado)

Row | pKd | Binder
1 | 3.5 | IKLETKKTKL [SLC15A2, Q16348]

biological target: T2, APBA3_1, O96018; test: holdup assay; set-up: key: below the threshold = too weak to quantify, mostly under pKd 3.1 to 4; settings: plain residues with an end cap or a label only (N-terminal biotin on a linker: ado-ado)

Row | pKd | Binder
2 | below the threshold | IKLETKKTKL [SLC15A2, Q16348]

biological target: T3, ARHGAP21, Q5T5U3; test: holdup assay; set-up: key: below the threshold = too weak to quantify, mostly under pKd 3.1 to 4; settings: plain residues with an end cap or a label only (N-terminal biotin on a linker: ado-ado)

Row | pKd | Binder
3 | 3.98 | IKLETKKTKL [SLC15A2, Q16348]

biological target: DLG1_2, Q12959; test: holdup assay; set-up: key: below the threshold = too weak to quantify, mostly under pKd 3.1 to 4; settings: plain residues with an end cap or a label only (N-terminal biotin on a linker: ado-ado)
Sequence (Q12959 314-412): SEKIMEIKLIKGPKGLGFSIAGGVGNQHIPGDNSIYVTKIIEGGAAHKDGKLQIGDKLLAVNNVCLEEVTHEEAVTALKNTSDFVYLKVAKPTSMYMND

Row | pKd | Binder
4 | below the threshold | IKLETKKTKL [SLC15A2, Q16348]

biological target: T4, DLG3_1, Q92796; test: holdup assay; set-up: key: below the threshold = too weak to quantify, mostly under pKd 3.1 to 4; settings: plain residues with an end cap or a label only (N-terminal biotin on a linker: ado-ado)

Row | pKd | Binder
5 | 3.69 | IKLETKKTKL [SLC15A2, Q16348]

biological target: T5, DLG3_2, Q92796; test: holdup assay; set-up: key: below the threshold = too weak to quantify, mostly under pKd 3.1 to 4; settings: plain residues with an end cap or a label only (N-terminal biotin on a linker: ado-ado)

Row | pKd | Binder
6 | below the threshold | IKLETKKTKL [SLC15A2, Q16348]

biological target: T6, DVL3, Q92997; test: holdup assay; set-up: key: below the threshold = too weak to quantify, mostly under pKd 3.1 to 4; settings: plain residues with an end cap or a label only (N-terminal biotin on a linker: ado-ado)

Row | pKd | Binder
7 | below the threshold | IKLETKKTKL [SLC15A2, Q16348]

biological target: T7, FRMPD1, Q5SYB0; test: holdup assay; set-up: key: below the threshold = too weak to quantify, mostly under pKd 3.1 to 4; settings: plain residues with an end cap or a label only (N-terminal biotin on a linker: ado-ado)

Row | pKd | Binder
8 | below the threshold | IKLETKKTKL [SLC15A2, Q16348]

biological target: GRID2IP_2, A4D2P6; test: holdup assay; set-up: key: below the threshold = too weak to quantify, mostly under pKd 3.1 to 4; settings: plain residues with an end cap or a label only (N-terminal biotin on a linker: ado-ado)
Sequence (A4D2P6 272-370): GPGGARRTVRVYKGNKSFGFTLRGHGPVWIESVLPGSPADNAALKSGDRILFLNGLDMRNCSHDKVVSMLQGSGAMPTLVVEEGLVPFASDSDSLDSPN

Row | pKd | Binder
9 | 4.71 | IKLETKKTKL [SLC15A2, Q16348]

biological target: T8, GRIP1_5, Q9Y3R0; test: holdup assay; set-up: key: below the threshold = too weak to quantify, mostly under pKd 3.1 to 4; settings: plain residues with an end cap or a label only (N-terminal biotin on a linker: ado-ado)

Row | pKd | Binder
10 | below the threshold | IKLETKKTKL [SLC15A2, Q16348]

biological target: GRIP2_4, Q9C0E4; test: holdup assay; set-up: key: below the threshold = too weak to quantify, mostly under pKd 3.1 to 4; settings: plain residues with an end cap or a label only (N-terminal biotin on a linker: ado-ado)
Sequence (Q9C0E4 446-548): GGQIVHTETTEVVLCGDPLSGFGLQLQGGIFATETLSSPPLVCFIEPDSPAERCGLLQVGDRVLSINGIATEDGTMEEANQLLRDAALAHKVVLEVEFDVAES

Row | pKd | Binder
11 | below the threshold | IKLETKKTKL [SLC15A2, Q16348]

biological target: HTRA1, Q92743; test: holdup assay; set-up: key: below the threshold = too weak to quantify, mostly under pKd 3.1 to 4; settings: plain residues with an end cap or a label only (N-terminal biotin on a linker: ado-ado)
Sequence (Q92743 360-477): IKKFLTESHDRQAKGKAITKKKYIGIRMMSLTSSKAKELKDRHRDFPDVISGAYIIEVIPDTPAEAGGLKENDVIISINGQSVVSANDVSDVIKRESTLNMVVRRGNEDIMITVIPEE

Row | pKd | Binder
12 | below the threshold | IKLETKKTKL [SLC15A2, Q16348]

biological target: Inadl_4, Q8NI35; test: holdup assay; set-up: key: below the threshold = too weak to quantify, mostly under pKd 3.1 to 4; settings: plain residues with an end cap or a label only (N-terminal biotin on a linker: ado-ado)
Sequence (Q8NI35 547-651): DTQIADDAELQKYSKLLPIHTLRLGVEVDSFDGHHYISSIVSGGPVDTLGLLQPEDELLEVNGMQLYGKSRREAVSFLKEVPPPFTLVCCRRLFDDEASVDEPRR

Row | pKd | Binder
13 | below the threshold | IKLETKKTKL [SLC15A2, Q16348]

biological target: Inadl_6, Q8NI35; test: holdup assay; set-up: key: below the threshold = too weak to quantify, mostly under pKd 3.1 to 4; settings: plain residues with an end cap or a label only (N-terminal biotin on a linker: ado-ado)
Sequence (Q8NI35 1058-1167): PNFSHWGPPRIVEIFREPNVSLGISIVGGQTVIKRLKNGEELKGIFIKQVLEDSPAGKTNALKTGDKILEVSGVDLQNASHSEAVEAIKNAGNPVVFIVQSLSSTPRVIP

Row | pKd | Binder
14 | below the threshold | IKLETKKTKL [SLC15A2, Q16348]

biological target: MAGI2_5, Q86UL8; test: holdup assay; set-up: key: below the threshold = too weak to quantify, mostly under pKd 3.1 to 4; settings: plain residues with an end cap or a label only (N-terminal biotin on a linker: ado-ado)
Sequence (Q86UL8 915-1017): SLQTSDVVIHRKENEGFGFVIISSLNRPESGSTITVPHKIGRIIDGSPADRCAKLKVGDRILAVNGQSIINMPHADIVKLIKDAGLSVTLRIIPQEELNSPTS

Row | pKd | Binder
15 | 3.6 | IKLETKKTKL [SLC15A2, Q16348]

biological target: MAGI2_6, Q86UL8; test: holdup assay; set-up: key: below the threshold = too weak to quantify, mostly under pKd 3.1 to 4; settings: plain residues with an end cap or a label only (N-terminal biotin on a linker: ado-ado)
Sequence (Q86UL8 1141-1229): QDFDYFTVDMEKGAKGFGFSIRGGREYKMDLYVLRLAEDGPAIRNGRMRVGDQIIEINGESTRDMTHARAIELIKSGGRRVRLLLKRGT

Row | pKd | Binder
16 | below the threshold | IKLETKKTKL [SLC15A2, Q16348]

biological target: MAST1, Q9Y2H9; test: holdup assay; set-up: key: below the threshold = too weak to quantify, mostly under pKd 3.1 to 4; settings: plain residues with an end cap or a label only (N-terminal biotin on a linker: ado-ado)
Sequence (Q9Y2H9 962-1065): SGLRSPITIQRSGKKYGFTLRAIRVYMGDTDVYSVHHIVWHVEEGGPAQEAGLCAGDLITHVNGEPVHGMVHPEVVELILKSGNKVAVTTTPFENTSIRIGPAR

Row | pKd | Binder
17 | 4.86 | IKLETKKTKL [SLC15A2, Q16348]

biological target: PDLIM1, O00151; test: holdup assay; set-up: key: below the threshold = too weak to quantify, mostly under pKd 3.1 to 4; settings: plain residues with an end cap or a label only (N-terminal biotin on a linker: ado-ado)
Sequence (O00151 1-87): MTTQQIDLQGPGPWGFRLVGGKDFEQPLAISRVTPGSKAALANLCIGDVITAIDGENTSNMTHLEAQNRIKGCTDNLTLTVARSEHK

Row | pKd | Binder
18 | below the threshold | IKLETKKTKL [SLC15A2, Q16348]

biological target: T9, PDZD7_3, Q9H5P4; test: holdup assay; set-up: key: below the threshold = too weak to quantify, mostly under pKd 3.1 to 4; settings: plain residues with an end cap or a label only (N-terminal biotin on a linker: ado-ado)

Row | pKd | Binder
19 | 4.75 | IKLETKKTKL [SLC15A2, Q16348]

biological target: SCRIB_2, Q14160; test: holdup assay; set-up: key: below the threshold = too weak to quantify, mostly under pKd 3.1 to 4; settings: plain residues with an end cap or a label only (N-terminal biotin on a linker: ado-ado)
Sequence (Q14160 857-960): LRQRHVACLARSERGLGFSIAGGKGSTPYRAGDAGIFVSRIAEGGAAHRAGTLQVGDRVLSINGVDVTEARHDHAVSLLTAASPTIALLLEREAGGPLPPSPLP

Row | pKd | Binder
20 | below the threshold | IKLETKKTKL [SLC15A2, Q16348]

biological target: T10, SHANK1, Q9Y566; test: holdup assay; set-up: key: below the threshold = too weak to quantify, mostly under pKd 3.1 to 4; settings: plain residues with an end cap or a label only (N-terminal biotin on a linker: ado-ado)

Row | pKd | Binder
21 | 4.85 | IKLETKKTKL [SLC15A2, Q16348]

biological target: T11, SNTB1, Q13884; test: holdup assay; set-up: key: below the threshold = too weak to quantify, mostly under pKd 3.1 to 4; settings: plain residues with an end cap or a label only (N-terminal biotin on a linker: ado-ado)

Row | pKd | Binder
22 | 3.71 | IKLETKKTKL [SLC15A2, Q16348]

biological target: T12, SYNJ2BP, P57105; test: holdup assay; set-up: key: below the threshold = too weak to quantify, mostly under pKd 3.1 to 4; settings: plain residues with an end cap or a label only (N-terminal biotin on a linker: ado-ado)

Row | pKd | Binder
23 | below the threshold | IKLETKKTKL [SLC15A2, Q16348]

biological target: T13, TJP3_3, O95049; test: holdup assay; set-up: key: below the threshold = too weak to quantify, mostly under pKd 3.1 to 4; settings: plain residues with an end cap or a label only (N-terminal biotin on a linker: ado-ado)

Row | pKd | Binder
24 | below the threshold | IKLETKKTKL [SLC15A2, Q16348]
